Laboratory results as given in patent US20230190812A1 (published 2023).

Molecular target: T1, MAGE-A4 (MA4-230) peptide on HLA-A*02:01 (human)
T1 peptide: GVYDGREHTV
Test: multimer staining

binding result: recognises
B1: MA4-230 H1 TCR (TCR, V domains shown)
Valpha: LAKTTQPISMDSYEGQEVNITCSHNNIATNDYITWYQQFPSQGPRFIIQGYKTKVTNEVASLFIPADRKSSTLSLPRVSLSDTAVYYCLVVEGNRDDKIIFGKGTRLHILP
Vbeta: NAGVTQTPKFRVLKTGQSMTLLCAQDMNHEYMYWYRQDPGMGLRLIHYSVGEGTTAKGEVPDGYNVSRLKKQNFLLGLESAAPSQTSVYFCASPPTPSSYNEQFFGPGTRLTVL
